We go through 1 substance from paper PMC12102758.

For orientation: stoichiometry N means a count of units in the complex or per binding partner.

The target in the assay is SkSGL from Sanguibacter keddieii fused with a His6-tag at the C-terminus (Group 2 / GH193 β-1,2-glucanase) (Sanguibacter keddieii). In words: SEC; Superdex 200 (HiLoad 16/60), 20 mM Tris-HCl (pH 7.5) in place of 50 mM Tris-HCl (pH 8.0); size by protein markers. In general terms: SEC sorts molecules by how far they enter the pores of the column.

For “SkSGL from Sanguibacter keddieii fused with a His6-tag at the C-terminus (Group 2 / GH193 β-1,2-glucanase) (enzyme)”, the stoichiometry N amounted to 2.
